B1: ABT02 (antibody, V domains shown)
VH: QVQLVQSGGGVVHPGRSLKLSCAGSGFTFSDYDMHWVRQAPGKGLEWVAVMWFDGTEKYSAESVKGRFTISRDNSKNTLFLQMNSLRADDTAVYYCAREPDWLLWGDRGALDVWGQGTTVTVSS
VL: DIVMTQSPSTLSASVGDRVTITCWASQSISSRLAWYQQKPGKAPKLLMYEATSLGSGVPSRFSGSGSGTEFTLTISSLQPDDFAAYYCQHYDTYPYTFGQGTKLEIK
B2: ABT03 (antibody, V domains shown)
VH: QVQLQQSGGGLVQPGGSLRLSCAASGFTFSNYAMTWVRQAPGKGLEWVSSISVGGSDTYYADSVKGRFTVSRDNSKNTLLLQMNSLRAEDTAVYYCAKVRTKYCSSLSCFAGFDSWGQGTRVTVSS
VL: DVVMTQSPSSLSASVGDRVTITCRASQSISSYLHWYQQKPGKAPTLLISDASSSQSGVPSRFSGSRFGTDFTLTISSLQPEDFATYYCQQSYSTRALTFGGGTKVEIK
B3: ABT01 (antibody, V domains shown)
VH: QVQLQQSGGGLVQPGGSLRLSCAASGFTFKYDYMYWIRQAPGKGLEWVATISDGGSYTYYSDSVEGRFTTSRDNSKNTLYLQMNSLRAEDTAIYYCSRYRYDDAMDYWGQGTLVTVSS
VL: EIVLTQSPATLSLSPGERATISCRASESVDSYGHSFMQWYQQKPGQAPRLLIYRASNLEPGIPARFSGSGSGTDFTLTISSLEPEDFAVYYCQQGNEVPFTFGQGTKVEIK

Assays:
Experiment in all cases: ELISA on plate-coated toxin domain
[1] = target: BoNT/A heavy-chain N-terminus (HCN) domain (UniProt P0DPI0 871-1092)
[2] = target: BoNT/A light-chain heavy-chain N-terminus (LCHN) domain (UniProt P0DPI0 1-870)
[3] = target: BoNT/A heavy-chain C-terminus (HCC) domain (UniProt P0DPI0 1093-1296)
BoNT/A heavy-chain C-terminus (HCC) domain, sequence (P0DPI0 1093-1296 limits assumed): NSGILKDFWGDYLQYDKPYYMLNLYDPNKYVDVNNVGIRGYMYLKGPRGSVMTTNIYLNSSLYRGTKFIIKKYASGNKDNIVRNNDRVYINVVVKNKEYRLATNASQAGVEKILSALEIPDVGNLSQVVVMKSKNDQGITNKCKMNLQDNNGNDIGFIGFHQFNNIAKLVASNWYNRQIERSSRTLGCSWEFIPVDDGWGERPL

BoNT/A light-chain heavy-chain N-terminus (LCHN) domain, sequence (P0DPI0 1-870 limits assumed): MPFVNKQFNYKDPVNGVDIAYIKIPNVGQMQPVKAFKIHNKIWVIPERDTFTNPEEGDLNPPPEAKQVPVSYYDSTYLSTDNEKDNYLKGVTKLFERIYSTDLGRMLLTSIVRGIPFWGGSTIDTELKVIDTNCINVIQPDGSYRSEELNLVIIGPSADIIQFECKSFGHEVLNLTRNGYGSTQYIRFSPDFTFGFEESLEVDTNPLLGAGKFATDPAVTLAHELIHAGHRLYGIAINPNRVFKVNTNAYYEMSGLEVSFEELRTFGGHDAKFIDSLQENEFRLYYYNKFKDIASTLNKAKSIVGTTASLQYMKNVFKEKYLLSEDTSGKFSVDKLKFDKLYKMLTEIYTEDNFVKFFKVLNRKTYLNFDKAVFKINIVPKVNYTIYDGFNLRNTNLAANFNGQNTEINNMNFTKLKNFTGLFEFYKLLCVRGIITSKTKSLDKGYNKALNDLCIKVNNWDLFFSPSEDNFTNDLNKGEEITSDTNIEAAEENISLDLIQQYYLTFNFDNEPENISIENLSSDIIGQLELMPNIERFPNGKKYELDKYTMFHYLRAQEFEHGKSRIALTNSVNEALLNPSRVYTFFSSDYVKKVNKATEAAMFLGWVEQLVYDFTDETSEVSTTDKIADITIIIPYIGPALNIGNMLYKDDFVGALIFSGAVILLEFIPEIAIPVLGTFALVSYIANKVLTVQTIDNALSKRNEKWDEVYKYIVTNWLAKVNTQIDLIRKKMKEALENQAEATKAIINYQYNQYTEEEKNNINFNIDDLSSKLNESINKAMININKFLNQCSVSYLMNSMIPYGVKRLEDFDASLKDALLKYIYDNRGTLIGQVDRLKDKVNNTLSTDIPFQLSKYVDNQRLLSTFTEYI
BoNT/A heavy-chain N-terminus (HCN) domain, sequence (P0DPI0 871-1092 limits assumed): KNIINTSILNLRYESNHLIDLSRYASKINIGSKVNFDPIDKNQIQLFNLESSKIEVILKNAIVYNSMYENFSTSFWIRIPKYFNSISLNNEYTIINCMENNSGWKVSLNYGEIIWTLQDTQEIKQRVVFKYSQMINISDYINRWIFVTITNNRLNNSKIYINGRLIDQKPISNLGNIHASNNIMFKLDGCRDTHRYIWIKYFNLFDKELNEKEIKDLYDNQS

Row | Binder | binding result [1] | binding result [2] | binding result [3]
1 | B1 | no binding | no binding | 
2 | B2 | no binding |  | no binding
3 | B3 |  | no binding | no binding

— patent US20110059079A1 (XOMA TECHNOLOGY, published 2011)
